Experiment [1] deals with B20.4.1. The experiment can be described thus: SPR (BIAcore); FIG. 11; 37 C; ~1000 RU VEGF immobilized; 1:1 Langmuir model.
For experiment [2], the target named is B20.4.1. As to the kind of experiment: SPR (BIAcore); FIG. 10; 37 C; ~60 RU VEGF immobilized; bivalent model.

B1: mVEGF (ligand)
chain: APTTEGEQKSHEVIKFMDVYQRSYCRPIETLVDIFQEYPDEIEYIFKPSCVPLMRCAGCCNDEALECVPTSESNITMQIMRIKPHQSQHIGEMSFLQHSRCECRPKKDRTKPENHCEPCSERRKHLFVQDPQTCKCSCKNTDSRCKARQLELNERTCRCDKPRR
For the molecule B1, the Kd with B20.4.1 [1] turned out to be 2.26 nM; with B20.4.1 [2], 0.37 nM.

B2: hVEGF (ligand)
chain: APMAEGGGQNHHEVVKFMDVYQRSYCHPIETLVDIFQEYPDEIEYIFKPSCVPLMRCGGCCNDEGLECVPTEESNITMQIMRIKPHQGQHIGEMSFLQHNKCECRPKKDRARQENPCGPCSERRKHLFVQDPQTCKCSCKNTDSRCKARQLELNERTCRCDKPRR
For the molecule B2, the results for the Kd in the experiment with B20.4.1 [1] and with B20.4.1 [2] were 1.16 nM and 0.02 nM, respectively.
